The experiment deals with T1, Recombinant WEEV glycoprotein (E2/E3E2) (Western equine encephalitis virus, …, UniProt P13897).
T1 construct: source: bought: IBT Bioservices
As to the kind of experiment: SPR; ProteOn XPR36; […] (20 µg/mL in 10 mM sodium acetate pH 5.0); […]. Conditions: both partners purified. A general note: Surface plasmon resonance follows binding to a sensor surface in real time, without labels.

B1: anti-WEEV E2/E3E2 single-domain antibody WF4 (VHH)
VHH: DVQLQASGGGLVQAGGSLRLSCAVSDNTTSLNGMGYYRGPPGKQREFVAYARNNGAPKYADSVMGRFTISVDNSKATVYLQMNNLGPEDTALYYCYAPDRWHTYWAGGTQVTVSS
notes: also called Bt-WF4
As to B1, the Kd (in general, the constant that tells how readily two partners part at equilibrium) came to 0.024 µM; the off-rate (koff) (in general, the rate constant with which the complex falls apart) was 0.0015 s⁻¹; the kon (commonly the second-order rate constant of association) was found to be 63000 M⁻¹ s⁻¹.

B2: anti-WEEV E2/E3E2 single-domain antibody WH11 (VHH)
VHH: EVQLQASGGGLVQAGGSLRLTCVASGLTFVNYALDWYRQAPGKERELVAGMWSDGVAYYGDFVKGRFTMSRDNAKNMVYLQMNSLEPEDTAVYSCAARSRPTTQYDYWGQGTQVTVSS
notes: also called Bt-WH11
Consider B2, for which the Kd came out at 0.022 µM, the koff was determined as 0.0033 s⁻¹ and the kon was 150000 M⁻¹ s⁻¹.

B3: anti-WEEV E2/E3E2 single-domain antibody WE10 (VHH)
VHH: DVQLQASGGGLVQAGGSLRLSCVASGLTFVNYAIDWYRQAPGKEREVVAGMWNDGVAYYGDFVKGRFTIARDNAKNTVYLQMNNLKPEDTAVYFCGARSRPNLQYDYWGQGTQVTVSS
notes: also called Bt-WE10
On to B3, for which the equilibrium dissociation constant (Kd) amounted to 0.012 µM, the koff is 0.00083 s⁻¹ and the association rate constant (kon) came out at 70000 M⁻¹ s⁻¹.

B4: anti-WEEV E2/E3E2 single-domain antibody WD11f (VHH)
VHH: EVQLQASGGGLVQSGGSLRLSCAGSGGTESSYRMAWFRQAPGTERVFVARVSDGGGSILYADSAKGRFTISRDNGKNTIHLQMFSLKPEDTAVYFCAAAFSWMPPSTVAADYEYWGQGTQVTVSS
notes: also called Bt-WD11f
In the case of B4, the dissociation constant (Kd) was found to be 0.0072 µM, the koff is 0.53 s⁻¹ and the kon was 7.3e+07 M⁻¹ s⁻¹.

B5: anti-WEEV E2/E3E2 single-domain antibody WB9 (VHH)
VHH: DVQLQASGGGLVQAGGSLRLSCATSGISVSNSDMGWYRQGPGKQRELVARNSRAGTTNYLDSVKGRFTISRDNAKNMVFLQMNSLKLEDTAVYYCNTNPINRWNIWGQGAQVTVSS
notes: also called Bt-WB9
Take B5: the Kd stood at 0.0026 µM, the off-rate constant (koff) was 0.0029 s⁻¹ and the kon came to 1.1e+06 M⁻¹ s⁻¹.

B6: anti-WEEV E2/E3E2 single-domain antibody WC10 (VHH)
VHH: DVQLQASGGGLVEAGGSLRLSCTTSGISVRNSDMGWYRQGPGKQRELIARSSRGGATNYLDSVTGRFTISRDNIKNTVFLQMNSLKPEDTAVYYCNTNPINHWNVWGQGTQVTVSS
notes: also called Bt-WC10
As for B6, the dissociation constant Kd came out at 0.0085 µM, the off-rate constant (koff) was 0.85 s⁻¹ and the kon was found to be 1e+08 M⁻¹ s⁻¹.
